Source: the supplement of paper PMC7877785
± gives the uncertainty stated by the source.

Assay: self-splicing fitness, log relative to wild type (ln ratio); higher = more splicing; Tetrahymena group I intron in knt gene, E. coli kanamycin selection, DiMSum; sequences stand for … in CUCUCU…GGAGGGAAAAGUUAUCAGGCAUGCACCUGGUAGCUAGUCUUUAAACCAAUAGAUUGCAUCGGUUUAAAAGGCAAGACCGUCAAAUUGCGGGAAAGGGGUCAACAGCCGUUCAGUACCAAGUCUCAGGGGAAACUUUGAGAUGGCCUUGCAAAGGGUAUGGUAAUAAGCUGACGGACAUGGUCCUAACCACGCAGCCAAGUCCUAAGUCAACAGAUCUUCUGUUGAUAUGGAUGCAGUUCACAGACUAAAUGUCGGUCGGGGAAGAUGUAUUCUUCUCAUAAGAUAUAGUCGGACCUCUCCUUAAUGGGAGCUAGCGGAUGAAGUGAUGCAACACUGGAGCCGCUGGGAACUAAUUUGUAUGCGAAAGUAUAUUGAUUAGUUUUGGAGUACUCGUGGUCG
Method in brief: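 Colonies from six replicate transformations of E. coli BL21(DE3) were pooled and amplicon-sequenced on an Illumina HiSeq 2500. The library placed an intron with all eight P1ex-region nucleotides randomised inside the knt kanamycin-resistance gene on pET-22b(+), and cells grew overnight at 37°C or 30°C on LB agar with or without 25 μg/mL kanamycin (plus 100 μg/mL carbenicillin, 50 μM IPTG, 0.2% rhamnose). Fitness is the DiMSum error-weighted combination of wild-type-normalised replicate fold changes, kanamycin versus none.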

| Sequence | self-splicing fitness (ln) (30 °C) | self-splicing fitness (ln) (37 °C) |
| --- | --- | --- |
| CAAGAGCAAUAUUACGCAUG | -3.69 ± 0.44 | -2.53 ± 0.29 |
| CAAGAGCAAUAUUACGCCUA | – | -1.91 ± 0.43 |
| CAAGAGCAAUAUUACGCGGG | -2.7 ± 0.25 | -2.89 ± 0.34 |
| CAAGAGCAAUAUUACGCGGU | -3.05 ± 0.17 | -1.81 ± 0.21 |
| CAAGAGCAAUAUUACGCUAG | – | -2.98 ± 0.35 |
| CAAGAGCAAUAUUACGGACU | – | -2.75 ± 0.28 |
| CAAGAGCAAUAUUACGGCCU | -3.5 ± 0.25 | -1.27 ± 0.33 |
| CAAGAGCAAUAUUACGGCGU | -3.47 ± 0.34 | -1.92 ± 0.21 |
| CAAGAGCAAUAUUACGGCUU | -3.51 ± 0.39 | -2.36 ± 0.17 |
| CAAGAGCAAUAUUACGGGAA | -2.06 ± 0.11 | -3.01 ± 0.18 |
| CAAGAGCAAUAUUACGGGUC | -3.71 ± 0.21 | -2.17 ± 0.17 |
| CAAGAGCAAUAUUACGGUAG | -1.18 ± 0.076 | -1.01 ± 0.12 |
| CAAGAGCAAUAUUACGGUCC | -2.01 ± 0.35 | -1.76 ± 0.33 |
| CAAGAGCAAUAUUACGUCCU | -3.32 ± 0.43 | -2.24 ± 0.29 |
| CAAGAGCAAUAUUACGUCGC | -4.54 ± 0.38 | -2.38 ± 0.29 |
| CAAGAGCAAUAUUACGUUAG | -1.97 ± 0.11 | -0.995 ± 0.12 |
| CAAUAGCAAUAUUACGACGU | -2.06 ± 0.11 | -0.956 ± 0.11 |
| CAAUAGCAAUAUUACGACUC | -3.34 ± 0.24 | -0.701 ± 0.12 |
| CAAUAGCAAUAUUACGACUG | -0.326 ± 0.063 | -0.0987 ± 0.081 |
| CAAUAGCAAUAUUACGAGGG | -3.54 ± 0.16 | -0.649 ± 0.13 |
| CAAUAGCAAUAUUACGCAGA | -3.78 ± 0.42 | -2.14 ± 0.18 |
| CAAUAGCAAUAUUACGCAGU | -3.56 ± 0.26 | -2.12 ± 0.21 |

| Sequence | self-splicing fitness (ln) (30 °C) | self-splicing fitness (ln) (37 °C) |
| --- | --- | --- |
| CAAUAGCAAUAUUACGCCAU | -3.21 ± 0.34 | -2.43 ± 0.26 |
| CAAUAGCAAUAUUACGCGCG | -0.577 ± 0.094 | -0.206 ± 0.1 |
| CAAUAGCAAUAUUACGCUAU | -2.69 ± 0.33 | – |
| CAAUAGCAAUAUUACGCUCG | -0.561 ± 0.074 | -0.204 ± 0.092 |
| CAAUAGCAAUAUUACGCUUA | -2.06 ± 0.1 | -1.74 ± 0.11 |
| CAAUAGCAAUAUUACGGAAC | -3.98 ± 0.33 | -3.27 ± 0.47 |
| CAAUAGCAAUAUUACGGAGA | -2.75 ± 0.33 | -2.08 ± 0.43 |
| CAAUAGCAAUAUUACGGAUU | -3.94 ± 0.2 | -3.55 ± 0.3 |
| CAAUAGCAAUAUUACGGGGC | -2.73 ± 0.22 | -2.45 ± 0.23 |
| CAAUAGCAAUAUUACGGUAG | -1.34 ± 0.097 | -0.488 ± 0.1 |
| CAAUAGCAAUAUUACGUCAA | -3.04 ± 0.22 | -2.01 ± 0.28 |
| CAAUAGCAAUAUUACGUCUG | -0.324 ± 0.1 | -0.58 ± 0.13 |
| CAAUAGCAAUAUUACGUGCG | -0.75 ± 0.072 | -0.0882 ± 0.08 |
| CAAUAGCAAUAUUACGUUCA | -3.43 ± 0.25 | -2.59 ± 0.24 |
| CACAAGCAAUAUUACGAAUC | -4.04 ± 0.46 | -2.37 ± 0.18 |
| CACAAGCAAUAUUACGAGUA | -1.9 ± 0.085 | -0.487 ± 0.078 |
| CACAAGCAAUAUUACGCCGG | -0.875 ± 0.081 | -0.35 ± 0.095 |
| CACAAGCAAUAUUACGCCUC | -2.86 ± 0.2 | -1.95 ± 0.23 |
| CACAAGCAAUAUUACGCUGC | -5.23 ± 0.32 | -2.87 ± 0.21 |
| CACAAGCAAUAUUACGGAGA | -3.31 ± 0.17 | -2.65 ± 0.2 |
| CACAAGCAAUAUUACGGAUG | -2.59 ± 0.095 | -0.904 ± 0.087 |
